Reference: a protein production outcome set (Wang et al. 2014)

Assay: label from the status in PepcDB records

Sequence | protein production
MVYVFQGIGGYIILFLLMIGEGIGLPLPSEVIMPLVGYYSYLGSISLYLGVIVGTLGSLVGSIIAYIIGYKLGLAFLKRYGKYILIDEGKIEALHNWFLRYGNMAVFGFRFIPGLRALISYPAGIGQMKILKFLGFTFLGHTIWDIVLALIGYQLANQINFVITQAEKLGNYLFILVIVIIVIYILWRIFWKRK | failed
MKVTQNENLKLAQRGAFLSLVIYIILSIAKYMTGYVYDSAAVRADALNNMTDILVSVAVIVGLKISIKPADQNHPYGHLKSENISTLLVSFIIMFVGIQVIIENFPRLFTHDSHIPNFITIIISMISGLVMLCVFAINYRLSKRTKSSSLKSAAKDNLSDSLVSIGTAIGLMFTQIGFPIIDIILANILGLLIVYTGFGIFKESIFTLSDGFNEQDLEEYRLDILEVEDVIDVNNIKGRYHGSSIFIDVTIVVDPYLSLYEAHQICDKVEIHLHNKGISSVYVHPEPYTTKDEVK | failed
MDLEEQKKAVIEKLIREGYIKSKRVIDALLKVPREEFLPEHLKEYAYVDTPLEIGYGQTISAIHMVGMMCELLDLKPGMKVLEIGTGCGYHAAVTAEIVGEDGLVVSIERIPELAEKAERTLRKLGYDNVIVIVGDGTLGYEPLAPYDRIYTTAAGPKIPEPLIRQLKDGGKLLMPVGRYLQRLVLAEKRGDEIIIKDCGPVAFVPLVGKEGFQG | not failed
MKENKLDYIPEPMDLSLVDLPESLIQLSERIAENVHEVWAKARIDEGWTYGEKRDDIHKKHPCLVPYDELPEEEKEYDRNTAMNTIKMVKKLGFRIEKED | not failed
MNLTFLGLCIACMGVSVGEGLLMNGLFKSVARQPDMLSEFRSLMFLGVAFIEGTFFVTLVFSFIIK | failed
MADKEKKKKESILDLSKYIDKTIRVKFQGGREASGILKGFDPLLNLVLDGTIEYMRDPDDQYKLTEDTRQLGLVVCRGTSVVLICPQDGMEAIPNPFIQQQDA | failed
MSLAISITMETFYSLYPAVKHLHLTLIAVSVLFFVVRFVLHLRQSALMGKKVFKVAPHVIDTFLLLSGLVLCFMIKQYPFVDPWLTEKIGAVVAYIALGVIAIKANRNKLFKVFAFLGAIGWLVYAAKLAHFKQAVLLG | failed
MTLTSSQKPFRLLVGDREVQESDLAALLQKHQLLPELVKRMRFAQVIEGIEVQPDVLEQECQAWCKQNGIAPQQLPQLLAQQQISLEQWMSSVENRLRLRLFQEREFSHRAENRFLKRKSQLDLVTYSLLRHSDGHLIQELYQQLLHGEATFEDLATQFSQGHEAKTAGKLGPVPLSQPHPALAEVLRTAQPGQILPPRNLESYWLIIRLDQLQPVAFNETIRRQMLQELFDEWLGAEVQQTLNTL | failed
RTEAGDAYYSKFANNTPLPALMVSRKKFGSSYVYDKSYKTWDVPIAEQMEQKAKINIFAVAEYTDTQKIKVTVKGKILEGNTLPKSMVQVYLLEDKLIAPQVDGNTTVENYEHNHVLRGAVNGIWGEEFVNLKDYLYTYAVEPLSGMSFVAENYSIVAFVYDVQTFEVYDVVHVKINPQSDGK | not failed
MYKILIVEDDPNISSLLQSHIQKYGYEAVVAENFDDIMESFNAVKPHLVLLDVNLPKFDGFYWCRQIRHESTCPIIFISARAGEMEQIMAIESGADDYITKPFHYDVVMAKIKGQLRRIYGDYAPNISERIVEVEGLKLFPERPEIHFGSEQVLLTKKEAILAEMLLSKFPRTASREDLLAALWDDESFVEENTLNVNITRLRKKFNELGIENAIETVRGLGYRFNATWSE | failed
MHGLLPALKRGFKRWIGWRRLGIAASVFIIAFAITTLVRTLKGIDTGVILTALTEIPRGNIGLAAICVFFAFCTLTFYDFFALRTIGKKHVPYRIAALSSFTSYSIGHNIGATVFTGGAIRFRIYSDYGLNAIDVAKICFLSGLTFWLGNIFVLSIGMAVHPDAASSMDQLPSSINRLIALGGLASIGAYLVWLCMGEKRRELGQKGWKVVLPSAPLTLVQILIGVVDLGFCATAMYLLIPATPPIDFLSLAVVFILATLLGFASHAPGSIGVFDAAMLVALPEFGREQLLATLLVFRLLYFVIPFGLAISIMGTRELWMNVVEPWQERRRLAEACAQANLPKQVAAMERERSLRQASKR | failed
MKVLKPGLLTTVQDIGRTGYQKYGVLASGAMDTVSLRIANLLIGNGENEAGLEITMMGPGPSFHFSKQTLIAVTGADFTLRINDEEAPLWKPVLIKENSTVSFGPCKLGSRAYLAAAGGIEVPAVMESKSTYVRGSIGGLHGRALQKEDELNIGEMSALSQTILSRLSSQLAHTVIGSTDVVSQPWEISVIEDESRHSSAGGISICLLHSRIKNAFSEEAFRVTPQSDRMGYRLKGEPLDLTAPLEMVSAAVSFGAAQMPPAGKPYYPCLQDRQDDWPAIRGIAHIISADLPIVSQIMPGEHVQFEPVSLQEAEALAVEREQHIKELKTRMKMEWLT | not failed
MGTEERKARQKRYPPVLQDSGERPRRRFPYVSRSFVPSVFTVMNMVSGYVSIVMAGEGSFVIAGWLIFLAAFFDTIDGFVARLTNSSSEFGVELDSLSDLVSFGAAPAYLVYKFGLEHIGMPWGLLLSSLLMVGSGLRLARFNINLIDYHKDSFSGLPTPAQAMTVASFVLWMSVEPLFTELALQKVLMVLSVLLATLMVSKVNYDALPKPTLESFRSHPVQMILYVIAIFCVLVFQAKAFFVAMLLYILLGIVRSLTRTVQEWQL | failed
MSLTIKNSLGQSHDYIKMFVKEGDTVVDATCGNGNDTAFLASLVGENGRVFGFDIQDKAIANTTKKLTDLNLIDRVTLIKDGHQNMDKYIDCPVKAVMFNLGYLPSGDHSISTRPETTIQALSKAMELLVTGGIITVVIYYGGDTGFEEKEKVLEFLKGVDQKKFIVQRTDFINQANCPPILVCIEKISEGHHHHHH | not failed
MKAYLGLYTARLETPARSLKEKRALIKPALERLKARFPVSAARLYGLDAWGYEVVGFTLLGNDPAWVEETMRAAARFLAEAGGFQVALEEFRLEAFELDGLL | not failed
MAAADAEAVPARGEPQQDCCVKTELLGEETPMAADEGSAEKQAGEAHMAADGETNGSCENSDASSHANAAKHTQDSARVNPQDGTNTLTRIAENGVSERDSEAAKQNHVTADDFVQTSVIGSNGYILNKPALQAQPLRTTSTLASSLPGHAAKTLPGGAGKGRTPSAFPQTPAAPPATLGEGSADTEDRKLPAPGADVKVHRARKTMPKSVVGLHAASKDPREVREARDHKEPKEEINKNISDFGRQQLLPPFPSLHQSLPQNQCYMATTKSQTACLPFVLAAAVSRKKKRRMGTYSLVPKKKTKVLKQRTVIEMFKSITHSTVGSKGEKDLGASSLHVNGESLEMDSDEDDSEELEEDDGHGAEQAAAFPTEDSRTSKESMSEADRAQKMDGESEEEQESVDTGEEEEGGDESDLSSESSIKKKFLKRKGKTDSPWIKPARKRRRRSRKKPSGALGSESYKSSAGSAEQTAPGDSTGYMEVSLDSLDLRVKGILSSQAEGLANGPDVLETDGLQEVPLCSCRMETPKSREITTLANNQCMATESVDHELGRCTNSVVKYELMRPSNKAPLLVLCEDHRGRMVKHQCCPGCGYFCTAGNFMECQPESSISHRFHKDCASRVNNASYCPHCGEESSKAKEVTIAKADTTSTVTPVPGQEKGSALEGRADTTTGSAAGPPLSEDDKLQGAASHVPEGFDPTGPAGLGRPTPGLSQGPGKETLESALIALDSEKPKKLRFHPKQLYFSARQGELQKVLLMLVDGIDPNFKMEHQNKRSPLHAAAEAGHVDICHMLVQAGANIDTCSEDQRTPLMEAAENNHLEAVKYLIKAGALVDPKDAEGSTCLHLAAKKGHYEVVQYLLSNGQMDVNCQDDGGWTPMIWATEYKHVDLVKLLLSKGSDINIRDNEENICLHWAAFSGCVDIAEILLAAKCDLHAVNIHGDSPLHIAARENRYDCVVLFLSRDSDVTLKNKEGETPLQCASLNSQVWSALQMSKALQDSAPDRPSPVERIVSRDIARGYERIPIPCVNAVDSEPCPSNYKYVSQNCVTSPMNIDRNITHLQYCVCIDDCSSSNCMCGQLSMRCWYDKDGRLLPEFNMAEPPLIFECNHACSCWRNCRNRVVQNGLRARLQLYRTRDMGWGVRSLQDIPPGTFVCEYVGELISDSEADVREEDSYLFDLDNKDGEVYCIDARFYGNVSRFINHHCEPNLVPVRVFMAHQDLRFPRIAFFSTRLIEAGEQLGFDYGERFWDIKGKLFSCRCGSPKCRHSSAALAQRQASAAQEAQEDGLPDTSSAAAADPL | failed
